Data as given in the DeepSol protein solubility set.

test: soluble on expression in E. coli; label from the status in PepcDB or PDB records

Sequence	soluble on expression in E. coli
PVDFNGYWKMLSNENFEEYLRALDVNVALRKIANLLKPDKEIVQDGDHMIIRTLSTFRNYIMDFQVGKEFEEDLTGIDDRKCMTTVSWDGDKLQCVQKGEKEGRGWTQWIEGDELHLEMRAEGVTCKQVFKKVH	soluble
PVYMVYVSQDRLTPSAKHAVAKAITDAHRGLTGTQHFLAQVNFNEQPAGNVFLGGVQQGGDTIFVHGLHREGRSADLKGQLAQRIVDDVSVAAEIDRKHIWVYFGEMPAQQMVEYGRFLPQPGHEGEWFDNLSSDERAFMETNVDVSRT	soluble
QADTAMIVQISADRKEINLVSIPRDSLVDVPQCETSKGTIPAQYNVMFNSIFAGAYKTGGDLSSAASCTLNAVNSLTGLNIQNFIVVDFAGLVKMIDSVGGVDLCIPQNVNDPYTGLNLDKGMHHLDGVAATQYARIRHGIGDGSDTSRTTRQQYLIKQLMSEALS	not soluble
QDPDGLLGDKKDVGITCALIPADHDGVEIGERHDPLGSAFMNGPTRGEDVFIPMDWLIGGSDYAGKGWRMLVECLSAGRGISLPALGTAIGHLTTRTTGAYAYVRKQFGMSIGKFEGVAEAMGRIGGLTYLLEATRTLTTTSLDMKEKPGIVTAIAKYHMTEIARTILNDSFDIHAGRAIQDGPMNYLAKHYLGIPVAITVEGANILTRNLMIFGQGATRCHPYVLKEMEAAANPDSEQGAKEFDSLLFKH	not soluble
QERFVHVHKMITTGTIEEKIDVMLESKQTLNDQIIQSENWITELSTQELEEL	soluble
QGLVPQGQTQVLQGGNKVPVVNIADPNSGGVSHNKFQQFNVANPGVVFNNGLTDGVSRIGGALTKNPNLTRQASAILAEVTDTSPSRLAGTLEVYGKGADLIIANPNGISVNGLSTLNASNLTLTTGRPSVNGGRIGLDVQQGTVTIERGGVNATGLGYFDVVARLVKLQGAVSSKQGKPLADIAVVAGANRYDHATRRATPIAAGARGAAAGAYAIDGTAAGAMYGKHITLVSSDSGLGVRQLGSLSSPSAITVSSQGEIALGDATVQRGPLSLKGAGVVSAGKLASGGGAVNVAGGGAV	soluble
QGMIMTSDIKLLDYLRVRRSTPALQLSEPGPSKGEIEEILRLAVRVPDHGKLAPWRFVVYRGEERVRLSEAALRIALEKNPDLDLQQQEAERTRFTRAPVVIAVISTAKPHFKIPEWEQVMSAGAVCLNVIFAANASGFAANWLTEWLAFDPAFLAEIGVSAEEKVAGYIHIGSTTFPPVERPRPELADVVTWVGDV	soluble
QGRYTTDDGYIFNASDIIEDTGDAYIVPHGDHYHYIPKNELSASELAAAEAFLSG	soluble
QGTRVTLKVDKEYQQALSRGHSAGHLAYLALNKVLAASYWRKDADRKDPHGNYDFNSYAQEASFVTPDKCLDTYRLGKTLRKRGLNSAEMLSDLEKIEGQVNAQLKFWLERDAAIIMDCHGDNLTDSRYWKCDLGEGELAVIPCGGTHAEHLSDFGSIHVKLVEMDSQTIEMHTDVIACFSN	not soluble
QILSIDPLDISQNLAAVNKSLSDALQHLAQSDTYLSAI	soluble
QITGIETGFYDFDKLITGLHEDQLIVLAARPAMGKTALALNIAQNVATKSNKAVAVFSLEMGAESLVERMLSAEGTIINHHIRTGNLTVNEWQRLIYAQGQLAEAPIFIDDTAGVKITDIRARARRLSQETDGLGLIVIDYLQLIQGSRSDNRQQEVSEISRQLKIIAKELKVPVIALSQLSRGVEQRNDKRPIMSDL	not soluble
QKKTVQVYRIIAKNTIEERVCQVQAEKQELVSKTLVEDVNFFESLTNEELLRLFE	not soluble
QKVTSLTACLVDQSLRLDCRHENTSSSPIQYEFSLTRETKKHVLFGTVGVPEHTYRSRTNFTSKYNMKVLYLSAFTSKDEGTYTCALHHSGHSPPISSQNVTVLRDKLVKCEGISLLAQNTSWLLLLLLSLSLLQATDFMSL	not soluble
QLPPGTFIPYGLSLESATGVNFLTPTSFWKQTRMHASKRKLLRNMELLIIDEVSMLRADTLDLIDFVLRRVRSNPRSFGGVQVLFIGDLMQLPPVVKPHEWE	not soluble
QMFWPLQPVQLSLANVFLALANYLDAKAKLFHPVTNLAPQPMRIEAARLNAATVTALNACKATLLTRSKRGHVDGPSDRFLNIYFIAQDIHERVSSSHYRYQDLATEFERSDVLFRFKYLLETQAQACRDIAQAIQLGNEYTHTDESILALAELQNSLAYLEEQQQGHWKRLLMQLTYLFNNLATVEKQLNNINNPDAERLEEDTLADTNPHTLKAMWQRISANLHKDSMLFRH	not soluble
QPEDLAYVIFTSGSTGQPKGVAIEHRAARTTIDDINQRFEITDTDVVLGLSALSFDLSVWDIFGGLGAGATVVLPEEDRLRDPSYWLDLCDRHEITVWNSAPPLLEMLVDYAEIDPEAAAHALRNLRMVMLSGDWIPVTLPRRLKELAPNATVMSLGGATEASIWSICHRTSDADEHGPS	not soluble

Sequence	soluble on expression in E. coli
QQVRQSPQSLTVWEGETAILNCSYEDSTFNYFPWYQQFPGEGPALLISIRSVSDKKEDGRFTIFFNKREKKLSLHITDSQPGDSATYFCAARYQGGRALIFGTGTTVSVSP	soluble
QRKGVLIILDGLGDRPIKELGGKTPLEYANTPTMDYLAKIGILGQQDPIKPGQPAGSDTAHLSIFGYDPYKSYRGRGYFEALGVGLELDEDDLAFRVNFATLENGVITDRRAGRISTEEAHELAKAIQENVDIPVDFIFKGATGHRAVLVLKGMAEGYKVGENDPHEAGKPPHPFTWEDEASKKVAEILEEFVKKAHEVLDKHPINEKRRKEGKPVANYLLIRGAGTYPNIPMKFTEQWKVKAAAVVAVALVKGVAKAIGFDVYTPKGATGEYNTDEMAKARKAVELLKDYDFVFIHFKPTDAAGHDNNPKLKAELIERADRMIKYIVDHVDLEDVVIAITGDHSTPCEVMNHSGDPVPLLIAGGGVRADYTEKFGEREAMRGGLGRIRGHDIVPIMMDLMN	not soluble
QTVVTGKVIDSETSEPLIGVSVSTGQGASLRGVTTDMDGGFRFEVPAKSVLTFRCVGYATVTRSIGRGSQEDLGTILLDPQAIGLDEIQVIASVVPKDRMTPVPVSNIRVADIQAASLNVEFPELVKSTPSTYTTKGSGGFGDGRTNVRGFDTYNFGVLINGVPVNGMEDGKVYWSNWSGLMNQASTIQIQRGLGASKLGISSVGGTMNIITKTTDANTGGSAYVGMGNDGLHKESFSISTGMND	not soluble
QVQLQQPGSVLVRPGASVKLSCKASGFTFTSSWMHWAKQRPGQGLEWIGEIHPNSGNTHYNEKFKGKATLTVDTSSSTAYVDLSSLTSEDSAVYYCARMRYGDYYAMDNWGQGTSVTVSSAKTTAPPVYPLAPVCGDTTGSSVTLGCLVKGYFPESVTLLWNSGSLSSGVHTFPAVLQSDLYTLSSSVTVTSSTWPSQSITCNVAHPASSTKVDKKIEPRG	soluble
QVQLQQSGPEDVKPGASVKISCKASGYTFTDYYMNWVKQSPGKGLEWIGDINPNNGGTSYNQKFKGRATLTVDKSSSTAYMELRSLTSEDSSVYYCESQSGAYWGQGTTVTVSA	soluble
QVQLVQSGAEVRKPGASVKVSCKASGDTFSSYAISWVRQAPGQGLEWMGGIIPIFGTANYAQAFQGRVTITANESTSTAYMELSSLRSEDTAIYYCARDNPTLLGSDYWGAGTLVTVSSASTKGPSVFPLAPCSRSTSGGTAALGCLVKDYFPEPVTVSWNSGALTSGVHTFPAVLQSSGLYSLSSVVTVPSSSLGTQTYICNVNHKPSNTKVDKRV	soluble
RAATQVGATTMDRPEWVAVHPDKKHVFCTLTNNKNRGKEGQPVGGPNPREKNNYGQIVRWMPAQGDHTSDVFAWDLYLIAGNPTVHKGTLYAGSENISADNMFNSPDGIGFDTAGRLWIQTDGNYSNQGDFAGQGNNQMLCGDPITGEVKRFLTGPIACEITGLTFSPDHKTMFVG	not soluble
RAIPIKQSFLLKRSGNSLNKEWKKKYVTLSSNGFLLYHPSINDYIHSTHGKEMDLLRTTVKVPGKRPPRAISAFGPSASGSAGQAEEENFEFLIVSSTGQTWHFEAASFEERDAWVQAIESQILASLQ	soluble
RDTVVTLLLDNSGSMRGRPISIAAICADVLARTLERCNVKVEILGFTTRAWKGGLAREAWLNEGRPQQPGRLNDLRHIIYKAADAPMRRTRQNLGLMMKEGLLKENIDGEALEWAHRRMLGRREQRKILMVISDGAPVDDSTLSVNPANYLEKHLRDVIAMVERRKQVELLAIGIGHDVTRYYQRAVTITDVEQLAGAMTEQLAALFDSDPRARARVMGMKRAS	not soluble
RGVAVYVDHVDGDIHPVTYELIGKARELAAKINHPVYAVFIGQNIKDKAEELLHYGVDEVFVYDDAALKYFRIEPYTKAFEDFINKNKPSTILVGATTVGRSLAPRIAARFRTGLTADCTILDMKENTDLVQIRPAFGGNIMAQIINPNNRPQLATVRYKVMNAPVRSEEKKGKITLCSLKDITSNIEVLKVVKKQVEEN	not soluble
RHLVVPLNRLRDRADALRADELESTPLAAPLAARRDELGELAQALEHMAERLRLSLAQQRLLLRTLSHELRTPLARLRIAHDSELPPEQLRQRLDREIGDMQRLLEDTLDLAWMDTERPQLPTEPVLALSVWEALRDDACFESGWDPARLPCRLGVDCRVEVHLDSLAQAMENLLRNAIRHSPEDGTVSLDGEREGDFWHLRLQDQGPGVAEDQLERIFLPYQRLDDSAGEGFGLGLAIARRAIELQGGRLWASNGKPGLC	not soluble
RHRCIGLTVETKPDWFFEREIDEALAYGTTKVELGVQNIDDRILAINNRGHTVADIARSTQLARDAGLKIVYHIMPGMYGSSFEKDLKSFDLMINDERFKPDMLKIYPTLVTQGTGLYNLWKNGKYRPYTTAETVDLIVEFMRRMPDWIRIQRIQR	not soluble
RIEEVKERFVNLNRLFQELVGDFQAKSDQLVSVIQDMEKISENIMEELKKSGTNVDQIVERVKEASSQIGETLENIRSIEKLIQNIMRIARETNILALNATIEAARAGEAGKGFMIVANEVQNLSNETNEVTKQIVEKAREILESSQRSLENLEFMANLFETVGKTLQNMVRFMENIVKLLQEVRNSLDTSKESLSEKSAEIDSATKVLEETA	soluble
RIWRIIPDTSVIIDGRLSSRIKSGEFGSAEVIIPEAVVSELEAQANKGREIGFKGLEELSELRKLADRGDIQLKFSGVQPSLEEIKLSREGRVDALIRQTALDEGGLFVSEDRVQSLIARAKGLDVEYMHPKV	not soluble
RKLATAAKVSAMGSLNDLFESVSDRLRDSGRLIVVDEAENLPLRALEIVRRLHDETGCGLVLSGMPRLVANLRGKHGELVQLYSRVSVALNLGESLPDDELFEIAKAALPDAVKHLLPDSVQALITVIGFNETLELVRLMGGTTYPLRQGYTKNSQSRVAYLEEIIGSEAAGRLVEAMAPCNLFIPRCETALYELRNRKIRSQFDRQTAGGTPAYEAVNDLALAHRLSDRHVWRILKQADKEAEQENLF	not soluble
RLIRSVLCSSSAGFGQGFCSPSLRRHLSARFPRGHGNALANFSSCARSRVHAYSSASSATSVGVPVAKMRFIDIGANLLDEMYTGQYNDKPYHPPDLSAVLERAWAAGLEKLMITAGSLKEARAALELAKTDERLYCTVGCHPTRCKEFEDHPGGPEAYLQELLEVLKEGQALGKVVAVGECGLVATDYERLHFCDADTQKKYFEAQFRLAKESGLPMFLHLRAAADDFLDITGRHLGDFPRGGVVHSFDGTAEEAARVLAVPQLAIGINGCSLKTDDNLAVVGGLPLERIMLETDCPWCEIRPTHAGRKHVSAEALAGVTGAKDRKKFMPGCQVKS	not soluble
